Results as given in patent publication US20250163162A1 (SYNTHEKINE, published 2025).

Experiments:
Assay in all cases: cell-based or functional assay
IL10Rα/IL2Rγ receptor [1] = target: T1, IL10Rα/IL2Rγ receptor (human, UniProt Q13651 22-578; P31785 23-369)
T1 sequence (looked up) 1: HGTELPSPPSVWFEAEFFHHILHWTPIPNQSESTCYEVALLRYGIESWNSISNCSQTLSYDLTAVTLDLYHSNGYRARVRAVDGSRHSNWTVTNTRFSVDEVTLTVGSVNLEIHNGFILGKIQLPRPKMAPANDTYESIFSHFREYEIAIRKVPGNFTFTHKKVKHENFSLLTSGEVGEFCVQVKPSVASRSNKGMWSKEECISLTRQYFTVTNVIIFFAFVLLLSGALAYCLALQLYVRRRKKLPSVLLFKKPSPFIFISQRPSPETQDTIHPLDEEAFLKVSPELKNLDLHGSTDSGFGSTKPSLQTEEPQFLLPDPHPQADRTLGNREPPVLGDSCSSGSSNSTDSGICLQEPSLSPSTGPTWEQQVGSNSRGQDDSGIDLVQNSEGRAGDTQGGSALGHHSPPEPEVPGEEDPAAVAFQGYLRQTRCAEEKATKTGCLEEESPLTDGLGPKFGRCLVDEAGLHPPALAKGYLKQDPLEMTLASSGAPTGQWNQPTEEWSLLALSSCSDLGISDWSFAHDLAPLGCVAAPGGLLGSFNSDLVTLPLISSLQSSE
T1 sequence (looked up) 2: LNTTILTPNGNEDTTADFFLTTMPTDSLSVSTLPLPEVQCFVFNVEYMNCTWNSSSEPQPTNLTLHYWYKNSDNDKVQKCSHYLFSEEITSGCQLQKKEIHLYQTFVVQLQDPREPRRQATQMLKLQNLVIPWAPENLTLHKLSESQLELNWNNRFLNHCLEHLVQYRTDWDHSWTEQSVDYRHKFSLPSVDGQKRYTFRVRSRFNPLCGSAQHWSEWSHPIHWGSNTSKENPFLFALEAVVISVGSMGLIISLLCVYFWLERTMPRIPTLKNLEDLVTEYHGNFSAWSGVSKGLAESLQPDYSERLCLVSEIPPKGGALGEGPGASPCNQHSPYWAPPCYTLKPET

IL10Rα/IL2Rγ receptor [2] = target: T1, IL10Rα/IL2Rγ receptor; remark: listed apart in the source
IL10Rα/IL2Rγ receptor [3] = target: T1, IL10Rα/IL2Rγ receptor; remark: listed apart in the source
IL10Rα/IL2Rγ receptor [4] = target: T1, IL10Rα/IL2Rγ receptor; remark: listed apart in the source
IL10Rα/IL2Rγ receptor [5] = target: T1, IL10Rα/IL2Rγ receptor; remark: listed apart in the source
IL10Rα/IL2Rγ receptor [6] = target: T1, IL10Rα/IL2Rγ receptor; remark: listed apart in the source

| Binder | pSTAT3 MFI, CD4 T cells, 0.0001 nM (unstimulated 1887) (IL10Rα/IL2Rγ receptor [1]) [MFI] | pSTAT3 MFI, CD4 T cells, 0.001 nM (unstimulated 1887) (IL10Rα/IL2Rγ receptor [1]) [MFI] | pSTAT3 MFI, CD4 T cells, 0.01 nM (unstimulated 1887) (IL10Rα/IL2Rγ receptor [1]) [MFI] | pSTAT3 MFI, CD4 T cells, 0.1 nM (unstimulated 1887) (IL10Rα/IL2Rγ receptor [1]) [MFI] | pSTAT3 MFI, CD4 T cells, 1 nM (unstimulated 1887) (IL10Rα/IL2Rγ receptor [1]) [MFI] | pSTAT3 MFI, CD4 T cells, 10 nM (unstimulated 1887) (IL10Rα/IL2Rγ receptor [1]) [MFI] | pSTAT3 MFI, CD4 T cells, 100 nM (unstimulated 1887) (IL10Rα/IL2Rγ receptor [1]) [MFI] | pSTAT3 MFI, CD8 T cells, 0.0001 nM (unstimulated 1446) (IL10Rα/IL2Rγ receptor [2]) [MFI] | pSTAT3 MFI, CD8 T cells, 0.001 nM (unstimulated 1446) (IL10Rα/IL2Rγ receptor [2]) [MFI] | pSTAT3 MFI, CD8 T cells, 0.01 nM (unstimulated 1446) (IL10Rα/IL2Rγ receptor [2]) [MFI] | pSTAT3 MFI, CD8 T cells, 0.1 nM (unstimulated 1446) (IL10Rα/IL2Rγ receptor [2]) [MFI] | pSTAT3 MFI, CD8 T cells, 1 nM (unstimulated 1446) (IL10Rα/IL2Rγ receptor [2]) [MFI] | pSTAT3 MFI, CD8 T cells, 10 nM (unstimulated 1446) (IL10Rα/IL2Rγ receptor [2]) [MFI] | pSTAT3 MFI, CD8 T cells, 100 nM (unstimulated 1446) (IL10Rα/IL2Rγ receptor [2]) [MFI] | pSTAT3 MFI, Monocytes, 0.0001 nM (unstimulated 2116) (IL10Rα/IL2Rγ receptor [3]) [MFI] | pSTAT3 MFI, Monocytes, 0.001 nM (unstimulated 2116) (IL10Rα/IL2Rγ receptor [3]) [MFI] | pSTAT3 MFI, Monocytes, 0.01 nM (unstimulated 2116) (IL10Rα/IL2Rγ receptor [3]) [MFI] | pSTAT3 MFI, Monocytes, 0.1 nM (unstimulated 2116) (IL10Rα/IL2Rγ receptor [3]) [MFI] | pSTAT3 MFI, Monocytes, 1 nM (unstimulated 2116) (IL10Rα/IL2Rγ receptor [3]) [MFI] | pSTAT3 MFI, Monocytes, 10 nM (unstimulated 2116) (IL10Rα/IL2Rγ receptor [3]) [MFI] | also measured |
| --- | --- | --- | --- | --- | --- | --- | --- | --- | --- | --- | --- | --- | --- | --- | --- | --- | --- | --- | --- | --- | --- |
| DR465(DR240-DR231) (bispecific antibody) QVQLQESGGGSVQAGGSLRLSCGASGYTYSSYCMGWFRQVPGKEREGVAVIDSDGSTSYADSVKGRFTISKDNGKNTLYLQMNSLKPEDTAMYYCAADLGHYRPPCGVLYLGMDYWGKGTQVTVSSGGGSQVQLQESGGGSVQAGGSLRLSCTASGFTFDDREMNWYRQAPGNECELVSTISSDGSTYYADSVKGRFTISQDNAKNTVYLQMDSVKPEDTAVYYCAADFMIAIQAPGAGCWGQGTQVTVSSASHHHHHH | 1800 | 1800 | 1850 | 2210 | 4730 | 7240 | 7070 | 1390 | 1370 | 1380 | 1590 | 3260 | 4850 | 5020 | 1990 | 1970 | 1950 | 1960 | 2110 | 2470 | pSTAT3 MFI, Monocytes, 100 nM (unstimulated 2116) (IL10Rα/IL2Rγ receptor [3]): 2470 MFI; pSTAT3 MFI, B cells, 100 nM (unstimulated 1045) (IL10Rα/IL2Rγ receptor [4]): 1660 MFI; pSTAT3 MFI, CD4+ T cells, 100 nM (unstimulated 1778) (IL10Rα/IL2Rγ receptor [4]): 6350 MFI; pSTAT3 MFI, CD8+ T cells, 100 nM (unstimulated 1288) (IL10Rα/IL2Rγ receptor [4]): 4510 MFI; pSTAT3 MFI, Monocytes, 100 nM (unstimulated 1787) (IL10Rα/IL2Rγ receptor [4]): 2350 MFI; pSTAT3 MFI, NK cells, 100 nM (unstimulated 1149) (IL10Rα/IL2Rγ receptor [4]): 1880 MFI; pSTAT3 MFI, B cells, 0.0001 nM (unstimulated 1193.5) (IL10Rα/IL2Rγ receptor [5]): 1110 MFI; pSTAT3 MFI, B cells, 0.001 nM (unstimulated 1193.5) (IL10Rα/IL2Rγ receptor [5]): 1100 MFI; pSTAT3 MFI, B cells, 0.01 nM (unstimulated 1193.5) (IL10Rα/IL2Rγ receptor [5]): 1090 MFI; pSTAT3 MFI, B cells, 0.1 nM (unstimulated 1193.5) (IL10Rα/IL2Rγ receptor [5]): 1110 MFI; pSTAT3 MFI, B cells, 1 nM (unstimulated 1193.5) (IL10Rα/IL2Rγ receptor [5]): 1290 MFI; pSTAT3 MFI, B cells, 10 nM (unstimulated 1193.5) (IL10Rα/IL2Rγ receptor [5]): 1840 MFI; pSTAT3 MFI, B cells, 100 nM (unstimulated 1193.5) (IL10Rα/IL2Rγ receptor [5]): 1850 MFI; pSTAT3 MFI, NK cells, 0.0001 nM (unstimulated 1315) (IL10Rα/IL2Rγ receptor [6]): 1220 MFI; pSTAT3 MFI, NK cells, 0.001 nM (unstimulated 1315) (IL10Rα/IL2Rγ receptor [6]): 1230 MFI; pSTAT3 MFI, NK cells, 0.01 nM (unstimulated 1315) (IL10Rα/IL2Rγ receptor [6]): 1220 MFI; pSTAT3 MFI, NK cells, 0.1 nM (unstimulated 1315) (IL10Rα/IL2Rγ receptor [6]): 1250 MFI; pSTAT3 MFI, NK cells, 1 nM (unstimulated 1315) (IL10Rα/IL2Rγ receptor [6]): 1520 MFI; pSTAT3 MFI, NK cells, 10 nM (unstimulated 1315) (IL10Rα/IL2Rγ receptor [6]): 2040 MFI; pSTAT3 MFI, NK cells, 100 nM (unstimulated 1315) (IL10Rα/IL2Rγ receptor [6]): 2130 MFI |
| DR441(DR236-DR231) (bispecific antibody) QVQLQESGGGSVQAGGSLRLSCAASRFTYSSYCMGWFRQAPGKEREGVASIDSDGSTSYTDSVKGRFTISKDNAKNTLYLQMNSLKPEDTAMYYCALDLMSTVVPGFCGFLLSAGMDYWGKGTQVTVSSGGGSQVQLQESGGGSVQAGGSLRLSCTASGFTFDDREMNWYRQAPGNECELVSTISSDGSTYYADSVKGRFTISQDNAKNTVYLQMDSVKPEDTAVYYCAADFMIAIQAPGAGCWGQGTQVTVSSASHHHHHH | 1810 | 1830 | 1880 | 2240 | 4560 | 6760 | 6350 | 1380 | 1410 | 1430 | 1610 | 3060 | 4470 | 4260 | 2030 | 2040 | 2030 | 2010 | 2060 | 2340 | pSTAT3 MFI, Monocytes, 100 nM (unstimulated 2116) (IL10Rα/IL2Rγ receptor [3]): 2290 MFI; pSTAT3 MFI, B cells, 100 nM (unstimulated 1045) (IL10Rα/IL2Rγ receptor [4]): 1280 MFI; pSTAT3 MFI, CD4+ T cells, 100 nM (unstimulated 1778) (IL10Rα/IL2Rγ receptor [4]): 5760 MFI; pSTAT3 MFI, CD8+ T cells, 100 nM (unstimulated 1288) (IL10Rα/IL2Rγ receptor [4]): 3940 MFI; pSTAT3 MFI, Monocytes, 100 nM (unstimulated 1787) (IL10Rα/IL2Rγ receptor [4]): 2130 MFI; pSTAT3 MFI, NK cells, 100 nM (unstimulated 1149) (IL10Rα/IL2Rγ receptor [4]): 1660 MFI; pSTAT3 MFI, B cells, 0.0001 nM (unstimulated 1193.5) (IL10Rα/IL2Rγ receptor [5]): 1120 MFI; pSTAT3 MFI, B cells, 0.001 nM (unstimulated 1193.5) (IL10Rα/IL2Rγ receptor [5]): 1130 MFI; pSTAT3 MFI, B cells, 0.01 nM (unstimulated 1193.5) (IL10Rα/IL2Rγ receptor [5]): 1130 MFI; pSTAT3 MFI, B cells, 0.1 nM (unstimulated 1193.5) (IL10Rα/IL2Rγ receptor [5]): 1120 MFI; pSTAT3 MFI, B cells, 1 nM (unstimulated 1193.5) (IL10Rα/IL2Rγ receptor [5]): 1220 MFI; pSTAT3 MFI, B cells, 10 nM (unstimulated 1193.5) (IL10Rα/IL2Rγ receptor [5]): 1540 MFI; pSTAT3 MFI, B cells, 100 nM (unstimulated 1193.5) (IL10Rα/IL2Rγ receptor [5]): 1470 MFI; pSTAT3 MFI, NK cells, 0.0001 nM (unstimulated 1315) (IL10Rα/IL2Rγ receptor [6]): 1250 MFI; pSTAT3 MFI, NK cells, 0.001 nM (unstimulated 1315) (IL10Rα/IL2Rγ receptor [6]): 1260 MFI; pSTAT3 MFI, NK cells, 0.01 nM (unstimulated 1315) (IL10Rα/IL2Rγ receptor [6]): 1270 MFI; pSTAT3 MFI, NK cells, 0.1 nM (unstimulated 1315) (IL10Rα/IL2Rγ receptor [6]): 1270 MFI; pSTAT3 MFI, NK cells, 1 nM (unstimulated 1315) (IL10Rα/IL2Rγ receptor [6]): 1440 MFI; pSTAT3 MFI, NK cells, 10 nM (unstimulated 1315) (IL10Rα/IL2Rγ receptor [6]): 1800 MFI; pSTAT3 MFI, NK cells, 100 nM (unstimulated 1315) (IL10Rα/IL2Rγ receptor [6]): 1770 MFI |
